# From PMC7918695, “TFF1 Induces Aggregation and Reduces Motility of Helicobacter pylori” (International Journal of Molecular Sciences, 2021)
# Target: the molecule itself
# Test: non-reducing SDS-PAGE with Western blot; purified hrTFF1 loaded without reducing agents to preserve the disulfide bonds; probed with polyclonal anti-TFF1 antibody
protein,measurement,value
"human recombinant protein TFF1 (trefoil factor 1) (natural protein, UniProt P04155 25-84, looked up, Trefoil factor 1 (TFF1), human, recombinant from the hrTFF1-pIVEX vector; It is probably the mature secreted TFF1 without its signal peptide (surmised); The homodimer is held by disulfide bonds, since it is seen only under non-reducing conditions; also called hrTFF1; hTFF1; source: E. coli BLR (DE3) pLysS, purified (HisTrap HP, Factor Xa digestion, second HisTrap pass)) EAQTETCTVAPRERQNCGFPGVTPSQCANKGCCFDDTVRGVPWCFYPNTIDVPPEEECEF",stoichiometry N,2
